Reference: patent US20180051081A1 (published 2018)
Changes are numbered by the printed parent chain.

B1: chimeric antibody VxP037-01LC-Pro/VxP037-01HC-Pro (antibody, human IgG1, kappa, V domains shown)
VH: EVQLQQFGAELVKPGASMKLSCKASGYTFTNYYVFWVKQRPGQGLEWIGDINPVNGDTNFNEKFKNKATLTVDKSSTTTYLQLSSLTSEDSAVYYCTRGGYTMDYWGQGTLVTVSS
VL: DVVMTQTPLSLSVSLGDQASISCRSSQSLVHSNGNTYLHWYLQKPGQSPKLLIYKVSYRFSGVPDRFSGSGSGTDFTLKISRVEAEDLGVYFCSQNTHVPRTFGQGTKVEIKR
notes: also called Chimera; VxP037-01LC/VxP037-01HC
B2: Clone 1 (pVxK7b-037-hum01-LC / pVxK7b-037-hum01-HC) (antibody, human IgG1, kappa)
light: DIVMTQTPLSLPVTPGEPASISCRSSQSLVHSNGNTYLHWYQQKPGKAPKLLIYKVSYRFSGVPDRFSGSGSGTDFTLKISRVEAEDVGVYYCSQNTHVPRTFGQGTKVEIKRTVAAPSVFIFPPSDEQLKSGTASVVCLLNNFYPREAKVQWKVDNALQSGNSQESVTEQDSKDSTYSLSSTLTLSKADYEKHKVYACEVTHQGLSSPVTKSFNRGEC
heavy: not shown
notes: also called Cl 1
B3: Clone 14 (pVxK7b-037-hum14-LC / pVxK7b-037-hum14-HC) (antibody, human IgG1, kappa)
light: B2 light with I2V, T7S, P15L, E17Q
heavy: not shown
B4: Clone 19 (pVxK7b-037-hum19-LC / pVxK7b-037-hum19-HC) (antibody, human IgG1, kappa)
light: B2 light with I2V, T7S, P15L, E17Q
heavy: not shown
B5: Clone 3 (pVxK7b-037-hum03-LC / pVxK7b-037-hum03-HC) (antibody, human IgG1, kappa)
light: B2 light with I2V, T7S, P15L, E17Q
heavy: not shown
B6: Clone 13 (pVxK7b-037-hum13-LC / pVxK7b-037-hum13-HC) (antibody, human IgG1, kappa)
light: B2 light
heavy: not shown
notes: also called Cl 13
B7: Clone 20 (pVxK7b-037-hum20-LC / pVxK7b-037-hum20-HC) (antibody, human IgG1, kappa)
light: B2 light with Q42L, K47Q, A48S, K50Q
heavy: not shown
B8: Clone 15 (pVxK7b-037-hum15-LC / pVxK7b-037-hum15-HC) (antibody, human IgG1, kappa, V domains shown)
VH: QVQLQESGPGLVKPSQTLSLTCTVSGYTFTNYYVFWVRQARGQRLEWIGDINPVNGDTNFNEKFKNRLTISKDTSKNQVVLTMTNMDPVDTATYYCARGGYTMDYWGQGTLVTVSS
VL: AIQLTQSPSSLSASVGDRVTITCRSSQSLVHSNGNTYLHWYQQKPGQAPRLLIYKVSYRFSGVPSRFSGSGSGTEFTLTISSLQPDDFATYYCSQNTHVPRTFGQGTKVEIKR
B9: Clone 6 (pVxK7b-037-hum06-LC / pVxK7b-037-hum06-HC) (antibody, human IgG1, kappa, V domains shown)
VH: B8 VH
VL: B8 VL with A1D, L4M, Q42L, A48S, R50Q, V63I, S65A, P85S, D86E, T90V
B10: Clone 21 (pVxK7b-037-hum21-LC / pVxK7b-037-hum21-HC) (antibody, human IgG1, kappa, V domains shown)
VH: B8 VH
VL: AIQLTQSPSSLSASVGDRVTITCRSSQSLVHSNGNTYLHWYQQKPGQAPRLLIYKVSYRFSGVPDRFSGSGSGTDFTLKISRVEAEDVGVYYCSQNTHVPRTFGQGTKVEIKR
B11: Clone 2 (pVxK7b-037-hum02-LC / pVxK7b-037-hum02-HC) (antibody, human IgG1, kappa, V domains shown)
VH: QVQLQESGPGLVKPSQTLSLTCTVSGYTFTNYYVFWVRQARGQRLEWIGDINPVNGDTNFNEKFKNRVTISADKSISTAYLQWSSLKASDTAMYYCARGGYTMDYWGQGTLVTVSS
VL: DVVMTQSPLSLPVTLGQPASISCRSSQSLVHSNGNTYLHWYQQKPGQAPRLLIYKVSYRFSGVPSRFSGSGSGTEFTLTISSLQPDDFATYYCSQNTHVPRTFGQGTKVEIKR
B12: Clone 22 (pVxK7b-037-hum22-LC / pVxK7b-037-hum22-HC) (antibody, human IgG1, kappa, V domains shown)
VH: B8 VH
VL: EIVLTQSPATLSVSPGERATLSCRSSQSLVHSNGNTYLHWYQQKPGQAPRLLIYKVSYRFSGVPSRFSGSGSGTDFTFTISSLEAEDAATYYCSQNTHVPRTFGQGTKVEIKR
B13: Clone 23 (pVxK7b-037-hum23-LC / pVxK7b-037-hum23-HC) (antibody, human IgG1, kappa)
light: B2 light
heavy: not shown
B14: Clone 9 (pVxK7b-037-hum09-LC / pVxK7b-037-hum09-HC) (antibody, human IgG1, kappa)
light: B2 light with I2V, T7S, P15L, E17Q
heavy: not shown
notes: also called Cl 9
B15: Clone 10 (pVxK7b-037-hum10-LC / pVxK7b-037-hum10-HC) (antibody, human IgG1, kappa, V domains shown)
VH: B8 VH
VL: B1 VL with V2I, S12P, S14T, L15P, D17E, Q18P, K50Q, L88V, F92Y

These binders were tested against T1, human CD47 (human, UniProt Q08722 19-323) (assay: FACS, human RBCs, supernatant 10 ng/ml).
T1 construct: whole, on cells; also called CD47 on human RBCs; CD47 on OV10 cells
T1 sequence (Q08722 19-323): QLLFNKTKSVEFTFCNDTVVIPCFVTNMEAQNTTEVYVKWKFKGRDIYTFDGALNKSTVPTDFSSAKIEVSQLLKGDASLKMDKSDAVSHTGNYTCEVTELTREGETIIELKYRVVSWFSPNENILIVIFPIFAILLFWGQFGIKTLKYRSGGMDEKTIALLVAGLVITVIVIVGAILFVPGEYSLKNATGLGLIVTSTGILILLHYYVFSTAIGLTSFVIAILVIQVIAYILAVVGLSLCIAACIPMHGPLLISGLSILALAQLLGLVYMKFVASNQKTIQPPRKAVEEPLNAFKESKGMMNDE
Method: (§1) RBCs are incubated for 60 minutes on ice with tissue culture supernatants containing the secreted humanized antibodies at a concentration of 10 ng/ml in a solution of phosphate buffered saline, pH 7.2, 2.5 mM EDTA (PBS+E), or with various concentrations of purified antibodies. Cells are then washed with cold PBS+E, and incubated for an additional hour on ice with FITC labeled donkey anti-human antibody (Jackson Immuno Research Labs, West Grove, Pa.; Catalogue #709-096-149) in PBS+E. Cells are then washed with PBS+E, and antibody binding is analyzed using a BD FACSAria Cell Sorter (Becton Dickinson) or a C6 Accuri Flow Cytometer (Becton Dickinson). Antibody binding is quantitated by comparison of mean fluorescence values relative to that of chimeric antibody >VxP037-01LC (SEQ ID NO:7))/>VxP037-01HC (SEQ ID NO:57). The mean fluorescence value for each antibody is divided by the mean fluorescence value for the chimeric antibody.
With B1 the “mean fluorescence relative to chimera” value was 1.
B2 was tested, and the “mean fluorescence relative to chimera” value was 1.1.
With B3 the “mean fluorescence relative to chimera” value was 1.1.
In the case of B4, the “mean fluorescence relative to chimera” value is reported as 0.7.
In the case of B5, the “mean fluorescence relative to chimera” value is reported as 0.7.
With B6 the “mean fluorescence relative to chimera” value was 1.2.
In the case of B7, the “mean fluorescence relative to chimera” value is reported as 1.3.
With B8 the “mean fluorescence relative to chimera” value was 1.
In the case of B9, the “mean fluorescence relative to chimera” value is reported as 0.9.
For B10, the “mean fluorescence relative to chimera” value was 1.2.
For B11, the “mean fluorescence relative to chimera” value was 1.
B12 was tested, and the “mean fluorescence relative to chimera” value was 1.1.
In the case of B13, the “mean fluorescence relative to chimera” value is reported as 1.2.
B14 was tested, and the “mean fluorescence relative to chimera” value was 1.2.
In the case of B15, the “mean fluorescence relative to chimera” value is reported as 1.1.

The binders below were run against T2, rat CD47 (rat, UniProt P97829 19-303) (assay: FACS, rat RBCs, supernatant 10 ng/ml).
T2 construct: whole, on cells; also called CD47 on rat RBCs
T2 sequence (looked up): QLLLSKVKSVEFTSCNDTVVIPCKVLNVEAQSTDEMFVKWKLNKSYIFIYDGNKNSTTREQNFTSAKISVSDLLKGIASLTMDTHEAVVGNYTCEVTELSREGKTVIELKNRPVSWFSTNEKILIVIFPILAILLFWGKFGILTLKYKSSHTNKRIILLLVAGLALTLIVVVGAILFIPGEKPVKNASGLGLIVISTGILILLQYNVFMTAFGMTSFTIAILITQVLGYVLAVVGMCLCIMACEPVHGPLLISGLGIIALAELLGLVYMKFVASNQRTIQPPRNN
Method: as §1
For B1, the “mean fluorescence relative to chimera” value was 1.
For B2, the “mean fluorescence relative to chimera” value was 2.7.
B3 was tested, and the “mean fluorescence relative to chimera” value was 3.2.
B4 was tested, and the “mean fluorescence relative to chimera” value was 2.6.
B5 was tested, and the “mean fluorescence relative to chimera” value was 1.7.
In the case of B6, the “mean fluorescence relative to chimera” value is reported as 3.1.
With B7 the “mean fluorescence relative to chimera” value was 1.9.
In the case of B8, the “mean fluorescence relative to chimera” value is reported as 2.4.
In the case of B9, the “mean fluorescence relative to chimera” value is reported as 2.1.
B10 was tested, and the “mean fluorescence relative to chimera” value was 2.8.
B11 was tested, and the “mean fluorescence relative to chimera” value was 2.6.
For B12, the “mean fluorescence relative to chimera” value was 2.8.
For B13, the “mean fluorescence relative to chimera” value was 3.3.
B14 was tested, and the “mean fluorescence relative to chimera” value was 3.7.
B15 was tested, and the “mean fluorescence relative to chimera” value was 2.9.

Each binder was assayed against T3, mouse CD47 (mouse, UniProt Q61735 19-303) (assay: FACS, mouse RBCs, supernatant 10 ng/ml).
T3 construct: whole, on cells; also called CD47 on mouse RBCs; CD47 on 4T1 cells
T3 sequence (looked up): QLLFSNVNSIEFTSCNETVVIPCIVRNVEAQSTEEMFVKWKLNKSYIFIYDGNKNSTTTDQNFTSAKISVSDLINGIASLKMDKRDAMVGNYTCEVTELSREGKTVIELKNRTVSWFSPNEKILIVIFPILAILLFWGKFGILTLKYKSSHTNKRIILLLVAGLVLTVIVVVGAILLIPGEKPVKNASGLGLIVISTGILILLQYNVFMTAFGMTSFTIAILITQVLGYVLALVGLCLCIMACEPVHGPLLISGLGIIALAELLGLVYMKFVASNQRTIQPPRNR
Method: as §1
In the case of B1, the “mean fluorescence relative to chimera” value is reported as 1.
For B2, the “mean fluorescence relative to chimera” value was 1.7.
With B3 the “mean fluorescence relative to chimera” value was 1.5.
B4 was tested, and the “mean fluorescence relative to chimera” value was 1.
B5 was tested, and the “mean fluorescence relative to chimera” value was 0.9.
In the case of B6, the “mean fluorescence relative to chimera” value is reported as 1.3.
B7 was tested, and the “mean fluorescence relative to chimera” value was 1.5.
B8 was tested, and the “mean fluorescence relative to chimera” value was 1.3.
B9 was tested, and the “mean fluorescence relative to chimera” value was 1.2.
In the case of B10, the “mean fluorescence relative to chimera” value is reported as 1.2.
In the case of B11, the “mean fluorescence relative to chimera” value is reported as 1.2.
For B12, the “mean fluorescence relative to chimera” value was 1.2.
In the case of B13, the “mean fluorescence relative to chimera” value is reported as 1.4.
For B14, the “mean fluorescence relative to chimera” value was 1.4.
With B15 the “mean fluorescence relative to chimera” value was 1.2.

What follows are binders tested against T4, pig CD47 (pig, UniProt Q9GKE8 19-303) (assay: FACS, pig RBCs, supernatant 10 ng/ml).
T4 construct: whole, on cells; also called CD47 on porcine RBCs
T4 sequence (looked up): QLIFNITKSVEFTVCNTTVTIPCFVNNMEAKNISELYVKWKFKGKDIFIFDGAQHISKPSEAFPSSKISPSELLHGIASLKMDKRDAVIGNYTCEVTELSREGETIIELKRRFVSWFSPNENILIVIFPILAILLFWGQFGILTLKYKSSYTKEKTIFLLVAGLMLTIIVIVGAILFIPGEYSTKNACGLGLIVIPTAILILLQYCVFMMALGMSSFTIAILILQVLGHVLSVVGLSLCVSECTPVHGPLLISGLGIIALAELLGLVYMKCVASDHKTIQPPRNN
Method: as §1
For B1, the “mean fluorescence relative to chimera” value was 1.
For B2, the “mean fluorescence relative to chimera” value was 1.3.
In the case of B3, the “mean fluorescence relative to chimera” value is reported as 1.4.
For B4, the “mean fluorescence relative to chimera” value was 1.3.
For B5, the “mean fluorescence relative to chimera” value was 0.9.
For B6, the “mean fluorescence relative to chimera” value was 1.4.
B7 was tested, and the “mean fluorescence relative to chimera” value was 1.7.
In the case of B8, the “mean fluorescence relative to chimera” value is reported as 1.2.
For B9, the “mean fluorescence relative to chimera” value was 1.1.
For B10, the “mean fluorescence relative to chimera” value was 1.4.
For B11, the “mean fluorescence relative to chimera” value was 1.2.
B12 was tested, and the “mean fluorescence relative to chimera” value was 1.4.
B13 was tested, and the “mean fluorescence relative to chimera” value was 1.7.
With B14 the “mean fluorescence relative to chimera” value was 1.6.
For B15, the “mean fluorescence relative to chimera” value was 1.5.

What follows are binders tested against T5, dog CD47 (dog, UniProt A0A8I3PM61 19-310) (assay: FACS, dog RBCs, supernatant 10 ng/ml).
T5 construct: also called CD47 on dog RBCs
T5 sequence: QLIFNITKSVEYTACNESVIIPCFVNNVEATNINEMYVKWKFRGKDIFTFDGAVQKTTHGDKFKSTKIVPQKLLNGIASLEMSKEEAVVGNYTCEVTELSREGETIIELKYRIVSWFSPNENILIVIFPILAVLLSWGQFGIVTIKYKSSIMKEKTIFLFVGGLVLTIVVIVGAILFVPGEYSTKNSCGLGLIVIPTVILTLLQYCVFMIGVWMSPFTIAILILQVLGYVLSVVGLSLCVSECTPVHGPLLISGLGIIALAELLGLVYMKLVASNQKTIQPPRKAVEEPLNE
Method: as §1
For B1, the “mean fluorescence relative to chimera” value was 1.
With B2 the “mean fluorescence relative to chimera” value was 1.
For B3, the “mean fluorescence relative to chimera” value was 1.3.
B4 was tested, and the “mean fluorescence relative to chimera” value was 1.2.
With B5 the “mean fluorescence relative to chimera” value was 0.9.
B6 was tested, and the “mean fluorescence relative to chimera” value was 1.
In the case of B7, the “mean fluorescence relative to chimera” value is reported as 1.1.
With B8 the “mean fluorescence relative to chimera” value was 1.1.
For B9, the “mean fluorescence relative to chimera” value was 1.1.
For B10, the “mean fluorescence relative to chimera” value was 1.1.
For B11, the “mean fluorescence relative to chimera” value was 1.
In the case of B12, the “mean fluorescence relative to chimera” value is reported as 1.
For B13, the “mean fluorescence relative to chimera” value was 1.1.
B14 was tested, and the “mean fluorescence relative to chimera” value was 1.
For B15, the “mean fluorescence relative to chimera” value was 1.1.
